Measured values reported in the nanobody polyreactivity screen of Harvey et al. (2022).

Assay: yeast display, Sf9 membrane polyspecificity reagent, FACS + sequencing; frameworks hold sequencing errors
Summary of the method: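 A nanobody's polyreactivity label depends on the gate it was sorted from. Yeast display cells were stained with 10% biotinylated, detergent-solubilized Sf9 membrane reagent for 1 hour at 4 °C, enriched on streptavidin microbeads and sorted by FACS. The low and high (top ~1%) gates were set on anti-HA fluorescence for expression and streptavidin fluorescence for reagent binding.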

Sequence	polyreactivity (PSR sort gate)
QVQLVESGGGLVQAGGSLRLSCDAYGSIFRLYAMGWFRQAPGKEREFVAAIDKRGGRTHYADSVKGRFTISRDNAKNTVYLQITSLKPEDTAVYYCAAKAYVVTNGHGKLDYWGQGPQVTVSS	high polyreactivity
QVQLVESGGGLVQAGGSLRLSCAASGSTFRWYAMGWYRQAPGKERELVAAITSGGSTNYADSVKGRFTISRDNAKNTVYLQMNSLKPEDTAVYYCNKVYPVVRYEPQYDYWGQGTQVTVSS	low polyreactivity
QVQLVESGGGLVQAGGSLRLSCAASGFTFVRYAMGWYRQAPGKERELVAAISSSGGSTYYADSVKGRFTISRDNAKNTVYLQMNSLKPEDTAVYYCAARPYARYSRNIDGYEYWGQGTQVTVSS	high polyreactivity
QVQLVESGGGLVQAGGSLRLSCAASGRIFWYYAMGWYRQAPGKEREFVAAITRRGGSTYYADSVKGRFTISRDNAKNTVYLQMNSLKPEDTAVYYCAAVGQKRSLGYSWGQGTQVTVSS	low polyreactivity
QVQLVESGGGLVQAGGSLRLSCAASGSIFPNNDMGWYRQAPGKERELVAAITTRGTSTYYADSVKGRFTISRDNAKNTVYLQMNSLKPEDTAVYYCAVGRRGDSAGGVAYYYWGQGTQVTVSS	low polyreactivity
QVQLVESGGGLVQAGGSLRLSCAASGRTFVRYAMGWYRQAPGKERELVAAISWSGGSTYYADSVKGRFTISRDNAKNTVYLQMNSLKPEDTAVYYCAADDETPSSHEEDYWGQGTQVTVSS	high polyreactivity
QVQLVESGGGLVQAGGSLRLSCAASGSIFRSYAMGWYRQAPGKERELVAAISRRGGSTYYADSVKGRFTISRDNAKNTVYLQMNSLKPADTAVYYCAADRTGPYDYWGQGTQVTVSS	high polyreactivity
QVQLVESGGGLVQAGGSIRLSCASSGSTFTIYAMGWYRPAPGKERELVAAISGTGGTKYADSVKGRFTISRDNAKNTVYLQMNSLKPEDTAVYYCAVGLVPLRDGWHFYYEFDSWGQGTQVTVSS	low polyreactivity
QVQLVESGGGLDQAGGSLRLSCADSGITFSYYAMRWYRQAPGKERELVAAISSGGSKNYADSVKGRFTISRDNGKNTVYFQMNSLKPEDTEVYYCAATQQFWWAYRYDYWGQGTQVTVSS	low polyreactivity
QVQLVESGGGLVQAGGSLRLSCAASGITLRGNAMGWYRQSPGKERELVAAIRTSGGRTYYADSVKGRFTISRDNAKNTVYLQMNSLIPEDTAVYYCAADYDSSYAYRTPYGYWGQGTQVTVSS	low polyreactivity
QVQIVESGAGLVQAGRSLRLSCAASGIIFHRYAMGWYRQAPGKERELVAAITWSGDSTYYADSVKGRFTISRDNAKNTVYLQMNSLKPEDTAVYYFWEYDYWGQGTQVTVSS	low polyreactivity
QVQLVETGGGLVQAGGSLRLSCAASGIIFDGNTMGWYRQAPGKERELVAGIDFSDDSTNYADSVKGRFTISRDNAKNTVYLQMNSLKPEDTAVYYCAADTRSPSAHEVDYWGQGTQVTVSS	low polyreactivity
QVQLVESGGGLVQAGGSLRLSCAASGSIFGGYTMGWYRQAPGKERELVAAISRRGGNTYYADSVKGRFTISRDNAKNTVYLQMKSLKPEDTAVYYCAVRWPSARIPVKLDYWGQGTQVTVSS	high polyreactivity
QVQLVESGGGLVQAGGSLRLSCAASGNTFAYNVMGWYRQAPGKERELVAAISRSGGSTYYADSVKGRFTISRDNAKNTVYLQMNSLKPEDTAVYYCAAVVRRVRPEGSYNRWGHDYWGQGTQVTVSS	high polyreactivity
QLQLVESRGGLVQSGGSLRLSCAASGRIFWRYAMGWYRQAPGNERELVAAISGRSGSTYYADSVKGRFTISRDNAKNTVYLLMNSLKAEDTAVYYCAAKYGTLRYDYWGQGTQVTVSS	high polyreactivity
QVQLVESGGGLVQAGGSLRLSCASSGLTLQYYAMGWYRQAPGKERELVAAITYSGGSTYYADSVKGRFTISRDNAKNTVYLQRNSLKPEDTGVYYCAKVPVRSGGTLYDYWGQGTQVTVSS	low polyreactivity
QVQLVESGGGLVQAGGSLRLSCAASGRIIRSYAMVWYRQAPGKERELVAAISYSGGSTYYADSVKGRFTISRDNAKNTVYLQMNSLKPEDTAVYYCAALPGERKYIYYGYDYWGQGTQVTVSS	high polyreactivity
QFQLVESGGGLVQAGGSLRLSCAASGSIFYYNAMGWYRQAPGKEPELVAAINSGGTTYYADSVKGRFTISRDNAKNTVYVLMNSLKPEDTAVYYCAARTTRRSRYKYDYWGQGTQVSVSS	high polyreactivity
QVQLVESGGGLVQAGGSRRLSCAASGSIFTGYAMGWYRQSPGKERELVAAINSNGGRTYYADSVKGRFTISRDNAKNTVYLQMNSLKPEDTAVYYCAADSGRGYRYKTFNWGRFYWGQGTQVTVSS	high polyreactivity
QVQLVESGGGLVQAGGSLRLSCAASGSTFYIYAMGWYRQAPGKERELVARISGSTDYADSVKGRFTISRDNAKNTVYLQMNSLKPEDTAVYYCAARYVYPYWYGDYYWGQGTQVTVSS	low polyreactivity
QVQLEESGGGLVQEGGSLRLSSAASGFTFGKYAMGSYRQAPGKEMEFVASISSSGARTYYADSVKGRFTISRDNAKNTVYLQKNSLKPEDTAVYYCAAAYGRYYYTYDYWGQGTQVTVSS	high polyreactivity
QVQLVESGGGLVQAGGSLRLSCAASGRIFSNYAMGWYRQAPGKERELVAAISRGGGRTFYADSVKGRFTISRDNAKNTVYLQMNSLKPEDTAVYYCATRSYYVKGDYWGQGTQVTVSS	high polyreactivity

Sequence	polyreactivity (PSR sort gate)
QGQLVESGGGLVQAGGSLRLSCAASGSIFVRNAMGWYRQAPGKERELVAADSVKGRFTISRDNAKNTVYLQMNSLKPEDTAVYYCNKDYIIRRGAIVYYGFDYWGHGTQVTVSS	low polyreactivity
QFQLVESGGGLVQAGGSLRLSCAASGRTFYVNAMGWYRPSPGKERELVAGISFSDGSTYYADSVKGRFTISRDNAKNTVYLQMNSLKPEDTAVYYCATVGAFDIYYGYGYWGQGTQVTVSS	low polyreactivity
QVQLVESGGGLVQAGGSLRLSCAASGITFRTYAMGWYRQAPGKERELVAAISSRGGSTYYADSVKGRFTISRDNAKNTVYLQMNSLKPEDTAVYYCNARDVRYYEYGYWGQGTQVTVSS	high polyreactivity
QVQLVESGGRLVQAGGSLRLSCAASGSIFLAYDMGWYRQAPGKERELVAGITSVGTTYYADSVKGRFTISRDNAKNTVYFQMNSLKPEDTAVYYCAAQLYIRNHFRYASTAAYDMGYWGQGTQVTVSS	low polyreactivity
QVQLVESGGGLVQAGGSLRLSCAASGGTFERNAMGWYIQAPGKERELVAGMSKISGRTYYADSVKGRFTISRDNAKNTVYLQMNCLKPEDTAVYYCNKVSRSSYGYWGQGTQVTVSS	high polyreactivity
QVQLVESGGGLVQAGGSLRFSCAASGRIFRRYAMGWYRQAPGKERELVAAITQSGDSTYYADSVKGRFTISRDNAKNTVYLQMNSLKPEDTAVYYCAAAGGPYRYNYWGQGTQVTVSS	high polyreactivity
QLQLVESGGGLVQAGGSLRLSCAASGRIFQDNPKGWYRPPPSKERELVAAISISGGITYYADSVKGRFTISRDNAKNTVYLQMNSLKPEDTAVYYCNKSISARLPGRYDYWGQGTQVTVSS	low polyreactivity
QVQLVESGGGLVQAGGSLRLSCAASGSTFPYNAMGWYRQAPGKERELVATIDRGSTTNYADSVKGRFTISRDNAKNTVYLQMNSLKPEDTAVYYCNAKFIWWYEKGGWNVSKYEYWGQGTQVTVSS	low polyreactivity
QVQLVESGGGLVQAGGSLRLICAASGFTFGYNDMGWYRQAPGKERELVATITRSAGRTYYADSVKGRFTISRDNAKNTVYLQMNSLKPEDTAVYYCASSYWDTEPGYREYDYWGQGTQVTVSS	low polyreactivity
QVQLGESGGGLVLAGGSLRLSCAASGYDMGWYRHAPGKESELVAAISRGGSTSYADSVKGRFTISRDNAKNTVYLQMNSLKPEDTAVYYCAARYGSYRVGYDYWGQGTQVTVSS	low polyreactivity
QVQLVESGGGLVQAGGSLRLSCAASGRTFPVNAMGWYRQAPGKERELVATISWSGGSTYYADSVKGRFTISRDYAKNTVYLQMNSLKPEDTAVYYCAALGRHYRYDYWGQGTLVTVSS	low polyreactivity
QVPLVESGGGLVQAGGSLRLSWAASGRTFVPYAMGWDSPAPGKDWELVAAISSGGDTNYADSVKGRVTISRDNAKNTVYLQMNSLKPEDTAVSYCAADVKRDRVWGGDYWGQGTQVTVSS	low polyreactivity
QVQLVESGGGLVQAGGSLRLSCAASGPTFFLYDMGWYRQAPGKERELVAAITSSGGDTYYADSVKGRFTISRDNAKNTVYLQMNSLKPEDTAVYYCAAEVWFPDRWMDYWGQGTQVTVSS	high polyreactivity
QVQLVESGGGLFQAGGSLRLSCASSGFIFVRYAMGWYIQAPGKERELVAGINSGGSTSYADSVKGRFTISRDNAKNSVYLQMNSLKPEDTAVYYCAAAKFRRGTRYYYCGQGTQVTVSS	high polyreactivity
QVQLVESGGGLVQAGGSLRLSCADSGRILPFYAMGWYRQAPGKERELVADISLSGGDTYYADSVKGRFTISRDNAKNTVYLQMNSLKPEDTAVYYCAKDRYQWLWSPEYDYWGQGTQVTVSS	low polyreactivity
QVQLVESGGGLVQAGGSLRLSCAASGSTLYTYAMGWYRQAPGKERELVATISWSGSSTYYADSVKGRFTISRDNAKNTVYLQMNSLKPEDTAVYDCAAPYHYWYRLDYWGQGTQVTVSA	high polyreactivity
QVQLVESGGGLVQAGGSLRLSCAASGRIFAGYPMGWYRQAPGKERELVATFTRGGSTNYADSVKRPFTISRDNAKNSVYLQMNSLKPEDTAVYYCNAAIRRHGGYAHEYWGQGTQVTVSS	low polyreactivity
QVQLQESGGGLVQAGGSLRLICSASGTNFTARFIGWYRQAPGKERELVATITDGGNTNHADSVKGRFTISRDNAKNTVFLQMNSLKPEDAAVYYCAAGEVDIDTLLYWGQGSQVTVSS	low polyreactivity
QVQLVESGGGLVQAGGSLRLSCAASGFTLGRYAMGWYRQAPGKERELVAAISSGGRTYYADSVKGRFTISRDNAKNTVYLQMNSLKPEDTAVYYCAADPRYISYDYWGQGTQVTVSS	low polyreactivity
QVQLVESGGGLVQAGGSLRLSCAASGFIFETYVMGWYRQAPGKVRALVAAISGGGSTYYADSVKGRFTMSRDNAKNTVYLQMNSLKPEDTAVYYCAAGSWRARSYYHYYYWGQGTQVTVSS	high polyreactivity
QVQLVESGGGLVQAGGSLRLSCAASGIIFYDYAMGWYRQAPGKERELVAAITSNGDNTYYADSVKGRFTISRDNAKNTVYLQMNSLKPEDTAVYYCAVDGSFAADFDNYLEEYGYWGQGTLVTVSS	low polyreactivity
